Here are results for 24 molecules from US20030236190A1 (published 2003).

Non-standard residues stand in square brackets, D forms with d. Primed or numbered codes have the meaning given here. No end group written: not given here. Hyp = O=C(O)[C@@H]1C[C@@H](O)CN1; Tic = O=C(O)[C@@H]1Cc2ccccc2CN1; Cha = N[C@@H](CC1CCCCC1)C(=O)O; Ac6c = NC1(C(=O)O)CCCCC1; Aic′ = not defined here; Aib = CC(C)(N)C(=O)O

B1: S292 (peptide)
peptide 1: XGGGFHENFYDWFVRQVSKK
peptide 2: XGGGFHENFYDWFVRQVSKK
modifications: not fully specified; N-terminal Lig′ coupled to linker 12
notes: dimer, N-N
B2: S301 (peptide)
peptide 1: XDWLQRNANFYDWFVAEL
peptide 2: XDWLQRNANFYDWFVAEL
modifications: N-terminal Lig′ coupled to linker 14
notes: dimer, N-N
B3: S290 (peptide)
peptide 1: XGGGFHENFYDWFVRQVSKK
peptide 2: XGGGFHENFYDWFVRQVSKK
modifications: not fully specified; N-terminal Lig′ coupled to linker 7
notes: dimer, N-N
B4: S293 (peptide)
peptide 1: XGGGFHENFYDWFVRQVSKK
peptide 2: XGGGFHENFYDWFVRQVSKK
modifications: not fully specified; N-terminal Lig′ coupled to linker 13
notes: dimer, N-N

The test concerns the target T1, human insulin receptor (HIR) (human, UniProt P06213 28-1382, limits assumed).
T1 construct: Detergent-solubilised receptor; The natural receptor is an alpha2-beta2 heterotetramer cleaved from one precursor
The test can be described thus: 125I-insulin displacement, solubilised HIR.
With DWLQRNANFYDWFVAELX (C-terminal Lig′) [S294], binding was characterised by a dissociation constant (Kd) of 130 nM.

Take PLCFLQELFGGASLGGYCSG [S262]: binding was characterised by a dissociation constant (Kd) of 19000 nM.

Regarding B1, the affinity, expressed as Kd, was 750 nM.

Take LDRQFYRYFQDLLVGFM [S260]: the Kd (in general, the equilibrium constant for the complex coming apart) came to 2300 nM.

Turning to DLRVLCELFGGAYVLGYCSE [S281], the Kd was determined as 11000 nM.

For the molecule GGSFYDD[Ac6c]E[Aib]LW[Aib]G (printed: GGSFYDD-Acy-E-Aib-LW-Aib-G) [S304], the Kd was 21000 nM.

In turn, B2 showed a Kd of 640 nM.

For the molecule RD[Hyp]FYDWFDD[dI] (printed: RD-Hyp-FYDWFDDi) [S268], the Kd worked out at 450 nM.

As to WQGYAWLS [S316], binding was put at a Kd of 7000 nM.

For the molecule QAPSNFYDWFVREWDEE [S287], binding was characterised by a dissociation constant (Kd) of 5900 nM.

SGPFYEE[Ac6c]ELLW[Aib]G (printed: SGPFYEE-Acy-ELLW-Aib-G) [S303] displayed a Kd of 5700 nM.

SDGFYNA[Ac6c]ELLSG (printed: SDGFYNA-Acy-ELLSG) [S302] came in with a Kd of 860 nM.

For the molecule WLEHEWAQIQCELYGRGCTY [S285], the Kd was 830 nM.

Take TGHRLGLDEQFYWWFRDALSG [S265]: the Kd is 110 nM.

In turn, QSFYDYIEELLGGEWKK [S288] came in with an equilibrium dissociation constant (Kd) of 4300 nM.

With N[Aib]PFYDE[Ac6c]DE[Cha]W[Aib]G (printed: N-Aib-PFYDE-Acy-DE-Cha-W-Aib-G) [S305], the Kd is 840 nM.

RWPNFYGYFESLLTHFS [S257] returned a Kd of 14000 nM.

D[Aic′]D[Aib]EFYDWFDE[dI]P[dQ] [S319] returned a Kd of 870 nM.

IQGWEPFYGWFDDVVAQMFEE [S264] displayed a Kd of 190 nM.

Turning to B3, the equilibrium dissociation constant (Kd) stood at 900 nM.

The molecule EWRD[Hyp]FYDWFDE[dI][Hyp][dE] (printed: EWRD-Hyp-FYDWFDEi-Hyp-e) [S322] registered a Kd of 720 nM.

As for [Ac6c]CLEEWGASL[Tic]QCSG (cysteine pairing not given here) [S256], the Kd is 9000 nM.

Consider B4, for which the Kd worked out at 120 nM.

As for GRVDWLQRNANFYDWFVAE[Ac6c]G [S306], the Kd stood at 2200 nM.
